Laboratory results reported in paper PMC3192196 (Angewandte Chemie (International Ed. in English), 2011).

Tests used:
PSMA [1] = target: T1, PSMA (Homo sapiens, UniProt Q04609); assay: fluorescence-based PSMA inhibition assay; type: biochemical
[2] = electronic absorption and fluorescence spectroscopy; type: physicochemical; details: for emission maximum / fluorescence lifetime: aqueous solution; for extinction coefficient: at absorbance maximum 776 nm; for absorbance maximum: electronic spectra; for quantum yield: in PBS
in vivo = details: SCID, mouse, PSMA− PC3-flu tumor
[3] = tested on: PSMA+ PC3-PIP and PSMA− PC3-flu xenografts; assay: sequential SPECT-CT and optical; type: in vivo, severe-combined immune-deficient (SCID) mice
PSMA+ PC3-PIP xenografts = assay: ex vivo biodistribution, PSMA+ PC3 PIP tumor; type: in vivo, severe-combined immune-deficient (SCID) mice; details: for PIP:flu uptake ratio: PSMA+ PIP to PSMA− flu tumor
[4] = ex vivo biodistribution, PSMA+ PC3 PIP tumor; type: in vivo, severe-combined immune-deficient (SCID) mice; details: SCID, mouse, PSMA+ PC3-PIP tumor
[5] = ex vivo biodistribution, normal tissues; details: for tissue uptake at 1 h / tissue uptake at 2 h / tissue uptake at 5 h / tissue uptake at 24 h: SCID, mouse
PSMA [6] = target: T1, PSMA; assay: blocking of uptake with ZJ43; type: in vivo; details: blocking dose 50 mg/Kg ZJ43 (Figure S9)

T1 sequence (Q04609 whole entry): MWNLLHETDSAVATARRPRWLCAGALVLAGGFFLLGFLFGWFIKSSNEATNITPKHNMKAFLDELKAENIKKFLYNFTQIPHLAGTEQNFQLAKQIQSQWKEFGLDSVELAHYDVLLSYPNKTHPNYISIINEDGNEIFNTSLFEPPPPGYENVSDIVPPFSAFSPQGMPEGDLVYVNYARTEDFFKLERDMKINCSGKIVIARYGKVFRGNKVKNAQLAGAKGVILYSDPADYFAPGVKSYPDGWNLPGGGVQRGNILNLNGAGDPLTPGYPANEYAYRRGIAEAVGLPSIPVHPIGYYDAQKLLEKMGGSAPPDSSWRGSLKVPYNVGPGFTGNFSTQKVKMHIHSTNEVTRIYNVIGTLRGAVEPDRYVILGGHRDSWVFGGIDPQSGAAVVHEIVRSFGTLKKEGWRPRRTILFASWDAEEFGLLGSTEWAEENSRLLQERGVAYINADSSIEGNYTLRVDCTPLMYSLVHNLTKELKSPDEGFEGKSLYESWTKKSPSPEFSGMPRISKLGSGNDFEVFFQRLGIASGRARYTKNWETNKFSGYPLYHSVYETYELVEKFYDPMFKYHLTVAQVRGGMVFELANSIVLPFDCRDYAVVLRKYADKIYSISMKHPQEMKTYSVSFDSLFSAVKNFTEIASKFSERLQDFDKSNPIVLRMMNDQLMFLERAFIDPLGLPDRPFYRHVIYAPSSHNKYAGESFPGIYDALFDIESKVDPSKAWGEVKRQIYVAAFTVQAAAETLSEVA

With `CC1(C)C(=CC=C2CCCC(C=CC3=[N+](CCCCS(=O)(=O)O)c4ccc(S(=O)(=O)[O-])cc4C3(C)C)=C2Oc2ccc(S(=O)(=O)O)cc2)N(CCCCCC(=O)NCCCC[C@H](NC(=O)CN2CCN(CC(=O)O)CCN(CC(=O)O)CCN(CC(=O)O)CC2)C(=O)N[C@@H](CCCCNC(=O)CCCCCCC(=O)NCCCC[C@H](NC(=O)N[C@@H](CCC(=O)O)C(=O)O)C(=O)O)C(=O)O)c2ccc(S(=O)(=O)O)cc21` (single isomer, unassigned) [Compound 1] the “PSMA inhibition, in words” value (PSMA [1]) was “potent inhibitors of PSMA”, the emission maximum [2] was 792 nm and the fluorescence lifetime [2] was 420 psec. For the same molecule, the extinction coefficient [2] was 181,000 M^−1cm^−1, the absorbance maximum [2] was 776 nm and the quantum yield [2] was ~ 8.9%.

In the case of `CC1(C)C(=CC=C2CCCC(C=CC3=[N+](CCCCS(=O)(=O)O)c4ccc(S(=O)(=O)[O-])cc4C3(C)C)=C2Oc2ccc(S(=O)(=O)O)cc2)N(CCCCCC(=O)NCCCC[C@H](NC(=O)CN2CCN(CC(=O)O)CCN(CC(=O)O)CCN(CC(=O)O)CC2)C(=O)N[C@@H](CCCCNC(=O)CCCCCCC(=O)NCCCC[C@H](NC(=O)N[C@@H](CCC(=O)O)C(=O)O)C(=O)O)C(=O)O)c2ccc(S(=O)(=O)O)cc21` (single isomer, unassigned) [[^111In]1, metal not drawn], the tissue uptake at 1 h (in vivo) is reported as 2.1 ± 0.7 %ID/g, the tissue uptake at 2 h (in vivo) is reported as 2.1 ± 0.5 %ID/g and the tissue uptake at 5 h (in vivo) is reported as 1.9 ± 0.2 %ID/g. The tissue uptake at 24 h (in vivo) was 2 ± 0.2 %ID/g, the “radiotracer uptake on in vivo imaging” value ([3]; 37 MBq IV, imaged repeatedly over two days) was “Intense radiotracer uptake was seen only in the PSMA+ PIP tumors and in the kidneys” and the “tumor visualization by NIRF imaging” value ([3]; single injection of ~0.22 μg (0.1 nmol)) was “able to visualize tumor with NIRF imaging”. For the same molecule, the “PIP:flu uptake ratio” value (PSMA+ PC3-PIP xenografts; 1h) was 6.7, the “PIP:flu uptake ratio” value (PSMA+ PC3-PIP xenografts; 2h) was 6.3 and the “PIP:flu uptake ratio” value (PSMA+ PC3-PIP xenografts; 5h) was 8.7. For the same molecule, the “PIP:flu uptake ratio” value (PSMA+ PC3-PIP xenografts; 24h) was 7.4, the “binding and accumulation in PSMA+ PC3-PIP xenografts, in words” value (PSMA+ PC3-PIP xenografts; biodistribution, up to 24 h) was “PSMA dependent binding in PSMA+ PC3-PIP xenografts with rapid accumulation at the tumor site that persisted throughout the course of the experiment” and the tissue uptake at 1 h [4] was 13.9 ± 1.9 %ID/g. The tissue uptake at 2 h [4] was 13.3 ± 2.4 %ID/g, the tissue uptake at 5 h [4] was 16.4 ± 3.7 %ID/g and the tissue uptake at 24 h [4] was 14.6 ± 1.3 %ID/g. For the same molecule, the “tissues with highest uptake at 1 h” value ([5]; 1 h) was “The blood, spleen, gastrointestinal tract, kidney and bladder displayed the highest uptake at 1 h”, the “kidney clearance, in words” value ([5]; 1 h to 24 h) was “Steady clearance from the kidneys” and the tissue uptake at 1 h ([5]; bladder) was 4.1 ± 1.7 %ID/g. For the same molecule, the tissue uptake at 2 h ([5]; bladder) was 2.7 ± 1 %ID/g, the tissue uptake at 5 h ([5]; bladder) was 1.1 ± 0.6 %ID/g and the tissue uptake at 24 h ([5]; bladder) was 2 ± 0.5 %ID/g. The tissue uptake at 1 h ([5]; blood) was 9.9 ± 5 %ID/g, the tissue uptake at 2 h ([5]; blood) was 7.1 ± 1.2 %ID/g and the tissue uptake at 5 h ([5]; blood) was 4.1 ± 0.8 %ID/g. It also gave a tissue uptake at 24 h ([5]; blood) of 0.9 %ID/g, a tissue uptake at 1 h ([5]; heart) of 3.3 ± 0.5 %ID/g and a tissue uptake at 2 h ([5]; heart) of 1.8 ± 0.3 %ID/g. The tissue uptake at 5 h ([5]; heart) was 1.8 ± 0.1 %ID/g, the tissue uptake at 24 h ([5]; heart) was 0.8 ± 0.1 %ID/g and the tissue uptake at 1 h ([5]; kidney) was 104 ± 9.4 %ID/g. The tissue uptake at 2 h ([5]; kidney) was 97.1 ± 13 %ID/g, the tissue uptake at 5 h ([5]; kidney) was 122 ± 21.6 %ID/g and the tissue uptake at 24 h ([5]; kidney) was 48.1 ± 17.7 %ID/g. It also gave a tissue uptake at 1 h ([5]; large intestine) of 1.5 ± 0.5 %ID/g, a tissue uptake at 2 h ([5]; large intestine) of 1.3 ± 0.3 %ID/g and a tissue uptake at 5 h ([5]; large intestine) of 0.8 ± 0.5 %ID/g. It also gave a tissue uptake at 24 h ([5]; large intestine) of 2 ± 0.4 %ID/g, a tissue uptake at 1 h ([5]; liver) of 2.4 ± 0.1 %ID/g and a tissue uptake at 2 h ([5]; liver) of 2.2 %ID/g. It also gave a tissue uptake at 5 h ([5]; liver) of 3.2 ± 1.2 %ID/g, a tissue uptake at 24 h ([5]; liver) of 3.1 ± 0.4 %ID/g and a tissue uptake at 1 h ([5]; muscle) of 1.2 ± 0.6 %ID/g. It also gave a tissue uptake at 2 h ([5]; muscle) of 0.7 ± 0.2 %ID/g, a tissue uptake at 5 h ([5]; muscle) of 0.9 ± 0.2 %ID/g and a tissue uptake at 24 h ([5]; muscle) of 0.4 %ID/g. The tissue uptake at 1 h ([5]; pancreas) was 2.1 ± 0.1 %ID/g, the tissue uptake at 2 h ([5]; pancreas) was 1.3 ± 0.3 %ID/g and the tissue uptake at 5 h ([5]; pancreas) was 2 ± 1 %ID/g. The tissue uptake at 24 h ([5]; pancreas) was 1 ± 0.3 %ID/g, the tissue uptake at 1 h ([5]; small intestine) was 1.8 ± 0.5 %ID/g and the tissue uptake at 2 h ([5]; small intestine) was 1.5 ± 0.2 %ID/g. For the same molecule, the tissue uptake at 5 h ([5]; small intestine) was 1.6 ± 0.3 %ID/g, the tissue uptake at 24 h ([5]; small intestine) was 2 ± 0.7 %ID/g and the tissue uptake at 1 h ([5]; spleen) was 11.3 ± 3.7 %ID/g. For the same molecule, the tissue uptake at 2 h ([5]; spleen) was 6.8 ± 0.9 %ID/g, the tissue uptake at 5 h ([5]; spleen) was 4.8 ± 2.4 %ID/g and the tissue uptake at 24 h ([5]; spleen) was 8.2 ± 5.4 %ID/g. The tissue uptake at 1 h ([5]; stomach) was 1.4 ± 0.3 %ID/g, the tissue uptake at 2 h ([5]; stomach) was 1.2 ± 0.1 %ID/g and the tissue uptake at 5 h ([5]; stomach) was 2.4 ± 1.8 %ID/g. For the same molecule, the tissue uptake at 24 h ([5]; stomach) was 1 ± 0.1 %ID/g and the “blocking of uptake in PSMA+ PC3 PIP tumor and kidney by ZJ43” value (PSMA [6]) was “effective blocking in PSMA+ PC3 PIP tumor and kidney”.

In the case of `CC1(C)C(=CC=C2CCCC(C=CC3=[N+](CCCCS(=O)(=O)O)c4ccc(S(=O)(=O)[O-])cc4C3(C)C)=C2Oc2ccc(S(=O)(=O)O)cc2)N(CCCCCC(=O)NCCCC[C@H](NC(=O)CN2CCN(CC(=O)O)CCN(CC(=O)O)CCN(CC(=O)O)CC2)C(=O)N[C@@H](CCCCNC(=O)CCCCCCC(=O)NCCCC[C@H](NC(=O)N[C@@H](CCC(=O)O)C(=O)O)C(=O)O)C(=O)O)c2ccc(S(=O)(=O)O)cc21` (single isomer, unassigned) [[^113/^115In]1], the “PSMA inhibition, in words” value (PSMA [1]) is reported as “potent inhibitors of PSMA”, the emission maximum [2] is reported as 792 nm and the fluorescence lifetime [2] is reported as 483 psec. The extinction coefficient [2] was 181,000 M^−1cm^−1, the “spectral properties of 1 versus [^113/^115In]1, in words” value ([2]; comparison of 1 and [^113/^115In]1) was “did not observe any significant changes in the spectral properties” and the absorbance maximum [2] was 776 nm. For the same molecule, the quantum yield [2] was ~ 8.9%.
